# T1: EsCas13d, nuclease-dead (Eubacterium siraeum, UniProt B0MS50, R295A;H300A;R849A;H854A)
# T1 sequence: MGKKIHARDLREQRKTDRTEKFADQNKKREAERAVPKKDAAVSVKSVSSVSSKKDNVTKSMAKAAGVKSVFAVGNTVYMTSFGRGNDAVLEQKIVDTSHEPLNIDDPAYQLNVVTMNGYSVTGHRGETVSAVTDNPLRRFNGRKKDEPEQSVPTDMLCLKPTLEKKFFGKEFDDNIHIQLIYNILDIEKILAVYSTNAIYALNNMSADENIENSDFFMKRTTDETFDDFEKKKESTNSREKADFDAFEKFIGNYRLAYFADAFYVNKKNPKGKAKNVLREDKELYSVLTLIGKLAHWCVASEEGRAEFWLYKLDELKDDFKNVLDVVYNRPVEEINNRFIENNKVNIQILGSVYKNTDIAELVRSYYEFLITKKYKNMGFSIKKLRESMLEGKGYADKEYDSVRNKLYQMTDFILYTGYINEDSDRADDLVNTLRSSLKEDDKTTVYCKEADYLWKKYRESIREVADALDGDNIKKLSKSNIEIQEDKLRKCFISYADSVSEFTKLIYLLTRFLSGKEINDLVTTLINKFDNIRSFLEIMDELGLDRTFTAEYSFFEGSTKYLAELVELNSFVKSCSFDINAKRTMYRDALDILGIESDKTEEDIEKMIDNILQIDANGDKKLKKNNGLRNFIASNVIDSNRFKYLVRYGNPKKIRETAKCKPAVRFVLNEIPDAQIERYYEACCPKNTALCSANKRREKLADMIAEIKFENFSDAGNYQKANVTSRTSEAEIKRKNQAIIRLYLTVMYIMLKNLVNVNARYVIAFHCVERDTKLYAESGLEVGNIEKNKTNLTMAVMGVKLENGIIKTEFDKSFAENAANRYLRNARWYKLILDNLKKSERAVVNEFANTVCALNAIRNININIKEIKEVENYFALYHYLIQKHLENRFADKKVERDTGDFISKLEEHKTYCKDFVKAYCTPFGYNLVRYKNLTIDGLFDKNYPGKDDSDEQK
# Molecular target: T1, EsCas13d, nuclease-dead
# Assay: crRNA (strand 1, pre-loaded); Mg2+; 40 mM Tris-HCl pH 7.5, 150 mM NaCl, 6 mM MgCl2, 1 mM DTT, 0.1% Tween-20, 0.2 mg/ml BSA; 25 C; 10 min per concentration, then washed
# Settings: tags: His6-TwinStrep-SUMO cleaved; N-terminal SNAP kept (SNAP-Surface 488); label: 3' end held by stalled T7 RNA polymerase
row,Binder,Kd
1,"target 1 insA 3' of 12,insG 3' of 10 (mixed) RNA 1: CACCCGUGCAAAAAUGCAGGGGUCUAAAACUGAGCGGAUAACCUCUCUAUGG RNA 2: GGGAAUGGAUCCACAUCUACGAAUUCGUACCAUAGAGAGGAUUGAUCCGCUCACCGAGAUCGGAAGAGCACACGU",29.2 ± 3.2 nM
2,"target 1 C6A,A18U (mixed) RNA 1: CACCCGUGCAAAAAUGCAGGGGUCUAAAACUGAGCGGAUAACCUCUCUAUGG RNA 2: GGGAAUGGAUCCACAUCUACGAAUUCGUACCAUUGAGAGGUUAUCAGCUCACCGAGAUCGGAAGAGCACACGU",26.7 ± 2.1 nM
3,"target 1 insA 3' of 19,insG 3' of 16 (mixed) RNA 1: CACCCGUGCAAAAAUGCAGGGGUCUAAAACUGAGCGGAUAACCUCUCUAUGG RNA 2: GGGAAUGGAUCCACAUCUACGAAUUCGUACCAUAAGAGGAGGUUAUCCGCUCACCGAGAUCGGAAGAGCACACGU",46 ± 6 nM
4,"target 1 insU 3' of 12,insA 3' of 2 (mixed) RNA 1: CACCCGUGCAAAAAUGCAGGGGUCUAAAACUGAGCGGAUAACCUCUCUAUGG RNA 2: GGGAAUGGAUCCACAUCUACGAAUUCGUACCAUAGAGAGGUUUAUCCGCUCAACCGAGAUCGGAAGAGCACACGU",7 ± 0.4 nM
5,"target 1 insU 3' of 7,insA 3' of 6 (mixed) RNA 1: CACCCGUGCAAAAAUGCAGGGGUCUAAAACUGAGCGGAUAACCUCUCUAUGG RNA 2: GGGAAUGGAUCCACAUCUACGAAUUCGUACCAUAGAGAGGUUAUCUCAGCUCACCGAGAUCGGAAGAGCACACGU",23.7 ± 0.8 nM
6,"target 1 insA 3' of 22,insG 3' of 7 (mixed) RNA 1: CACCCGUGCAAAAAUGCAGGGGUCUAAAACUGAGCGGAUAACCUCUCUAUGG RNA 2: GGGAAUGGAUCCACAUCUACGAAUUCGUACACAUAGAGAGGUUAUCGCGCUCACCGAGAUCGGAAGAGCACACGU",8.62 ± 0.35 nM
7,"target 1 U10C,G13U (mixed) RNA 1: CACCCGUGCAAAAAUGCAGGGGUCUAAAACUGAGCGGAUAACCUCUCUAUGG RNA 2: GGGAAUGGAUCCACAUCUACGAAUUCGUACCAUAGAGAUGUCAUCCGCUCACCGAGAUCGGAAGAGCACACGU",71 ± 18 nM
8,"target 1 insA 3' of 15,insU 3' of 2 (mixed) RNA 1: CACCCGUGCAAAAAUGCAGGGGUCUAAAACUGAGCGGAUAACCUCUCUAUGG RNA 2: GGGAAUGGAUCCACAUCUACGAAUUCGUACCAUAGAGAAGGUUAUCCGCUCUACCGAGAUCGGAAGAGCACACGU",6.5 ± 0.4 nM
9,"target 1 C2U,A16G (mixed) RNA 1: CACCCGUGCAAAAAUGCAGGGGUCUAAAACUGAGCGGAUAACCUCUCUAUGG RNA 2: GGGAAUGGAUCCACAUCUACGAAUUCGUACCAUAGGGAGGUUAUCCGCUUACCGAGAUCGGAAGAGCACACGU",39.3 ± 2.7 nM
10,target 1 C6U (mixed) RNA 1: CACCCGUGCAAAAAUGCAGGGGUCUAAAACUGAGCGGAUAACCUCUCUAUGG RNA 2: GGGAAUGGAUCCACAUCUACGAAUUCGUACCAUAGAGAGGUUAUCUGCUCACCGAGAUCGGAAGAGCACACGU,8.5 ± 0.4 nM
11,"target 1 G5A,G12A (mixed) RNA 1: CACCCGUGCAAAAAUGCAGGGGUCUAAAACUGAGCGGAUAACCUCUCUAUGG RNA 2: GGGAAUGGAUCCACAUCUACGAAUUCGUACCAUAGAGAGAUUAUCCACUCACCGAGAUCGGAAGAGCACACGU",10.2 ± 1.5 nM
12,"target 1 insC 3' of 17,insU 3' of 12 (mixed) RNA 1: CACCCGUGCAAAAAUGCAGGGGUCUAAAACUGAGCGGAUAACCUCUCUAUGG RNA 2: GGGAAUGGAUCCACAUCUACGAAUUCGUACCAUAGCAGAGGUUUAUCCGCUCACCGAGAUCGGAAGAGCACACGU",42 ± 6 nM
13,"target 1 insC 3' of 12,insA 3' of 5 (mixed) RNA 1: CACCCGUGCAAAAAUGCAGGGGUCUAAAACUGAGCGGAUAACCUCUCUAUGG RNA 2: GGGAAUGGAUCCACAUCUACGAAUUCGUACCAUAGAGAGGCUUAUCCGACUCACCGAGAUCGGAAGAGCACACGU",10.4 ± 1.1 nM
14,"target 1 insC 3' of 10,insC 3' of 3 (mixed) RNA 1: CACCCGUGCAAAAAUGCAGGGGUCUAAAACUGAGCGGAUAACCUCUCUAUGG RNA 2: GGGAAUGGAUCCACAUCUACGAAUUCGUACCAUAGAGAGGUUCAUCCGCUCCACCGAGAUCGGAAGAGCACACGU",20.2 ± 3.1 nM
15,"target 1 G15C,G17C (mixed) RNA 1: CACCCGUGCAAAAAUGCAGGGGUCUAAAACUGAGCGGAUAACCUCUCUAUGG RNA 2: GGGAAUGGAUCCACAUCUACGAAUUCGUACCAUACACAGGUUAUCCGCUCACCGAGAUCGGAAGAGCACACGU",50 ± 10 nM
16,"target 1 insG 3' of 10,insG 3' of 6 (mixed) RNA 1: CACCCGUGCAAAAAUGCAGGGGUCUAAAACUGAGCGGAUAACCUCUCUAUGG RNA 2: GGGAAUGGAUCCACAUCUACGAAUUCGUACCAUAGAGAGGUUGAUCCGGCUCACCGAGAUCGGAAGAGCACACGU",22.2 ± 1.5 nM
17,"target 1 A9G,C21U (mixed) RNA 1: CACCCGUGCAAAAAUGCAGGGGUCUAAAACUGAGCGGAUAACCUCUCUAUGG RNA 2: GGGAAUGGAUCCACAUCUACGAAUUCGUACUAUAGAGAGGUUGUCCGCUCACCGAGAUCGGAAGAGCACACGU",9 ± 0.5 nM
18,"target 1 insG 3' of 7,insU 3' of 5 (mixed) RNA 1: CACCCGUGCAAAAAUGCAGGGGUCUAAAACUGAGCGGAUAACCUCUCUAUGG RNA 2: GGGAAUGGAUCCACAUCUACGAAUUCGUACCAUAGAGAGGUUAUCGCGUCUCACCGAGAUCGGAAGAGCACACGU",13.8 ± 1 nM
19,"target 1 del3,del8 (mixed) RNA 1: CACCCGUGCAAAAAUGCAGGGGUCUAAAACUGAGCGGAUAACCUCUCUAUGG RNA 2: GGGAAUGGAUCCACAUCUACGAAUUCGUACCAUAGAGAGGUUACCGCCACCGAGAUCGGAAGAGCACACGU",7.05 ± 0.33 nM
20,target 1 complement block 7-9 (mixed) RNA 1: CACCCGUGCAAAAAUGCAGGGGUCUAAAACUGAGCGGAUAACCUCUCUAUGG RNA 2: GGGAAUGGAUCCACAUCUACGAAUUCGUACCAUAGAGAGGUUUAGCGCUCACCGAGAUCGGAAGAGCACACGU,6.54 ± 0.23 nM
21,"target 1 G15A,G17U (mixed) RNA 1: CACCCGUGCAAAAAUGCAGGGGUCUAAAACUGAGCGGAUAACCUCUCUAUGG RNA 2: GGGAAUGGAUCCACAUCUACGAAUUCGUACCAUAUAAAGGUUAUCCGCUCACCGAGAUCGGAAGAGCACACGU",73 ± 13 nM
22,"target 1 insU 3' of 17,insA 3' of 7 (mixed) RNA 1: CACCCGUGCAAAAAUGCAGGGGUCUAAAACUGAGCGGAUAACCUCUCUAUGG RNA 2: GGGAAUGGAUCCACAUCUACGAAUUCGUACCAUAGUAGAGGUUAUCACGCUCACCGAGAUCGGAAGAGCACACGU",14.2 ± 1.2 nM
23,"target 1 insA 3' of 17,insA 3' of 5 (mixed) RNA 1: CACCCGUGCAAAAAUGCAGGGGUCUAAAACUGAGCGGAUAACCUCUCUAUGG RNA 2: GGGAAUGGAUCCACAUCUACGAAUUCGUACCAUAGAAGAGGUUAUCCGACUCACCGAGAUCGGAAGAGCACACGU",10.6 ± 1.1 nM
24,"target 1 insG 3' of 6,insA 3' of 3 (mixed) RNA 1: CACCCGUGCAAAAAUGCAGGGGUCUAAAACUGAGCGGAUAACCUCUCUAUGG RNA 2: GGGAAUGGAUCCACAUCUACGAAUUCGUACCAUAGAGAGGUUAUCCGGCUACACCGAGAUCGGAAGAGCACACGU",6.9 ± 0.4 nM
25,"target 1 U8A,A18U (mixed) RNA 1: CACCCGUGCAAAAAUGCAGGGGUCUAAAACUGAGCGGAUAACCUCUCUAUGG RNA 2: GGGAAUGGAUCCACAUCUACGAAUUCGUACCAUUGAGAGGUUAACCGCUCACCGAGAUCGGAAGAGCACACGU",78 ± 23 nM
26,"target 1 A1G,C22A (mixed) RNA 1: CACCCGUGCAAAAAUGCAGGGGUCUAAAACUGAGCGGAUAACCUCUCUAUGG RNA 2: GGGAAUGGAUCCACAUCUACGAAUUCGUAACAUAGAGAGGUUAUCCGCUCGCCGAGAUCGGAAGAGCACACGU",12 ± 0.7 nM
27,"target 1 insG 3' of 16,insA 3' of 8 (mixed) RNA 1: CACCCGUGCAAAAAUGCAGGGGUCUAAAACUGAGCGGAUAACCUCUCUAUGG RNA 2: GGGAAUGGAUCCACAUCUACGAAUUCGUACCAUAGAGGAGGUUAUACCGCUCACCGAGAUCGGAAGAGCACACGU",22.1 ± 1.8 nM
28,"target 1 A14G,C21A (mixed) RNA 1: CACCCGUGCAAAAAUGCAGGGGUCUAAAACUGAGCGGAUAACCUCUCUAUGG RNA 2: GGGAAUGGAUCCACAUCUACGAAUUCGUACAAUAGAGGGGUUAUCCGCUCACCGAGAUCGGAAGAGCACACGU",46 ± 12 nM

# Source: article PMC10786891, “Massively parallel profiling of RNA-targeting CRISPR-Cas13d”
